What all share (experiment): MSD inhibition assay, abeta 1-28 coated plates
Test [1] has as its target Biosimilar (BS) bapineuzumab.
For test [2], the target named is Biosimilar (BS) bapineuzumab. The source holds these as a separate data set.
Test [3] addresses Biosimilar (BS) bapineuzumab. This is another data set of the same source.

Read-outs that look alike come from different tables or passages of the source.

We go through one molecule from patent US20190275125A1.

Chain of Biosimilar (BS) bapineuzumab (chain, as listed by the source, chain 1 of 2): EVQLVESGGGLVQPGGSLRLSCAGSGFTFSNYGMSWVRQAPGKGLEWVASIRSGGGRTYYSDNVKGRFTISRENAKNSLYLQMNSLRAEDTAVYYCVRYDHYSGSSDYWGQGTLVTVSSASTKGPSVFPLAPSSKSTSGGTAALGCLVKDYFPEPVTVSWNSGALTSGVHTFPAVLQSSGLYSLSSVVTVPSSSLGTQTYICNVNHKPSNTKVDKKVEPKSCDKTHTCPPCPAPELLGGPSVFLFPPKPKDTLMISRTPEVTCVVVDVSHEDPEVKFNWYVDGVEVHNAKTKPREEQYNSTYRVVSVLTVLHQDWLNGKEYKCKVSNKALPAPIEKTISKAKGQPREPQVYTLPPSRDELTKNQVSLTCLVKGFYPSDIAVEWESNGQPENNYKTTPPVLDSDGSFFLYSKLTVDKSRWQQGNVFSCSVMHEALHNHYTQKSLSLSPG
Chain of Biosimilar (BS) bapineuzumab (chain, as listed by the source, chain 2 of 2): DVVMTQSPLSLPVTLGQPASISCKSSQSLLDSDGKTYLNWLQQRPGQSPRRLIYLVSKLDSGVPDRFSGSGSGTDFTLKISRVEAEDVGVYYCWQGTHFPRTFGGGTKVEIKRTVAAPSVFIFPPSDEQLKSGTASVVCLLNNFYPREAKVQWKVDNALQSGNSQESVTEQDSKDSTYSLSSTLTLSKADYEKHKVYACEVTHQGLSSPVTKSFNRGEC

B1: abeta 1-12 trimer construct, P05067 672-683; P05067 672-683; P05067 672-683 (peptide)
peptide: DAEFRHDSGYEVGGGGGGGGDAEFRHDSGYEVGGGGGGGGDAEFRHDSGYEV
modifications: not checked
For B1, the IC50 was 19 nM in test [1], 10 to 40 nM in test [2] and 10 nM in test [3].

The term IC50 denotes the concentration that gives 50% inhibition. A lower IC50 goes with greater potency in that assay.
